The source of these data is article PMC8699212, “Mechanism of Zn^2+ and Ca^2+ Binding to Human S100A1” (Biomolecules, 2021).

This data set concerns the molecule itself. Put plainly: dynamic light scattering (DLS); 50 µM S100A1, 37 °C, without divalent metal ions or with 0.5-10 mM Ca2+ or Zn2+; hydrodynamic diameter (volume distribution); monomer to dimer.

Usually stoichiometry N stands for the number of molecules, sites or subunits per partner or assembly.

B1: S100A1 (natural protein, human)
chain: GSELETAMETLINVFHAHSGKEGDKYKLSKKELKELLQTELSGFLDAQKDVDAVDKVMKELDENGDGEVDFQEYVVLVAALTVACNNFFWENS
modifications: N-formylmethionine (fMet) at the N-terminus
notes: theoretical mass 10,545.5 Da, measured 10,571.2 ± 1.4 Da (fMet at the N-terminus); also called recombinant S100A1; human S100A1; source: residual Ca2+ removed
In the case of B1, the “stoichiometry N” value is 2.
